Experimental data as given in patent publication US10487307B2, “Culture method for pluripotent stem cells” (FUJIFILM CORPORATION, priority 2013, dated 2019).

Key:
[1] = Evaluation of adsorbability with respect to cell culture surface (OPA fluorescence); assay type: physicochemical; conditions: FIG. 1; 0 to 200 pmol/cm^2 added, 2 hours at 37° C., washed twice with PBS
Method: Each of the polypeptides of RCP-1 to RCP-11 and RCP-21 to RCP-26 obtained as above was diluted with a predetermined buffer such that they could be added to wells at a predetermined final concentration of 0 pmol/cm^2 to 200 pmol/cm^2. Thereafter, each of the polypeptides was added in an amount of 64 μL to a plasma-treated 96-well plate made of polystyrene (Tissue Culture-Treated, Falcon). Each of the polypeptides was allowed to adsorb onto the plate by being incubated for 2 hours at 37° C., and then the wells were washed twice with PBS, thereby obtaining surfaces coated with each of the polypeptides of RCP-1 to RCP-11 and RCP-21 to RCP-26.
Among the surfaces coated with each of the polypeptides obtained as above, the surfaces coated with RCP-1 and RCP-21 to RCP-26 were applied with 64 μL of a borate buffer and 64 μL of 1 N NaOH, followed by incubation for 24 hours at 80° C. and 100% humidity. After the resultant was air-cooled, 75 μL of a borate buffer was added to each well, and 50 μL of a reaction solution obtained by mixing OPA (o-phthalaldehyde: Wako Pure Chemical Industries, Ltd./methanol solution (160 mg/ml)) with N-acetyl-L-cysteine (NAC: Wako Pure Chemical Industries, Ltd.)/borate buffer solution (2 mg/ml) at a ratio of 1:100 (mass ratio) was further added thereto. After incubation for 30 minutes at 40° C., the fluorescence intensity thereof was measured by using an Envision Multilabel Counter (PerkinElmer Inc.) (excitation 355 nm/fluorescence 486 nm). A calibration curve was separately prepared from each of the polypeptide solutions so as to calculate the amount of the polypeptide adsorbed. In FIG. 1, a black rhombus indicates RCP-1, a black square indicates RCP-21, a black triangle indicates RCP-22, a black circle indicates RCP-23, a white rhombus indicates RCP-24, a white square indicates RCP-25, and a white triangle indicates RCP-26.

iPS cells = assay: Growth evaluation, growth curves over 8 days; assay type: cell-based, human
Method: The iPS cells collected in the same manner as in <Cell adhesiveness evaluation 1> were seeded into a 96-well plate, onto which RCP-1, RCP-21, and natural human vitronectin were adsorbed, at a ratio of 250 cells/well and cultured for 8 days in a 5% CO2 incubator at 37° C. The number of adhesive cells after different days of culture was measured in the same manner as in <Cell adhesiveness evaluation 1>, thereby obtaining growth curves. […] In FIG. 2, a black rhombus indicates a case using RCP-1, and a black square indicates a case using RCP-21.
From the increase and decrease in the obtained number of cells, the doubling time was calculated. As a result, it was confirmed that it takes 46.4±2.1 hours for the number of cells to be doubled in a case where RCP-1 is used, and 67.7±2.1 hours in a case where RCP-21 is used.

B1: RCP-1: recombinant polypeptide for culture, SEQ ID NO: 15; human vitronectin positions 1-55 and 269-459 with N-terminal methionine (protein)
chain: MDQESCKGRCTEGFNVDKKCQCDELCSYYQSCCTDYTAECKPQVTRGDVFTMPEDEPSQEECEGSSLSAVFEHFAMMQRDSWEDIFELLFWGRTSAGTRQPQFISRDWHGVPGQVDAAMAGRIYISGMAPRPSLAKKQRFRHRNRKGYRSQRGHSRGRNQNSRRPSRATWLSLFSSEESNLGANNYDDYRMDWLVPATCEPIQSVFFFSGDKYYRVNLRTRRVDTVDPPYPRSIAQYWLGCPAPGHL
modifications: Vitronectin-derived Recombinant Protein (RCP-1)
- adsorbability with respect to the plate [1]: excellent adsorbability
- doubling time (iPS cells; 250 cells/well, cultured for 8 days): 46.4 ± 2.1 h
- cell growth properties (iPS cells; FIG. 2): higher cell growth properties compared to RCP-21
